B1: IQUB (parent)
chain: KIREKEEWIKLDYHRRHNPKTNED

Variants of: B1
Assay: protein stability index of a GFP-peptide fusion (GPS, HEK-293T) (PSI 1-6); higher = more stable
Conditions: c terminus: a fixed tail appended
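Further: lentivirally expressed fusions sorted by FACS into six bins by GFP to DsRed ratio, PSI derived from sequencing read proportions per bin multiplied by bin number.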

Q: For KIRECEEWIKLDYHRRHNPKTNED [K5C], which protein stability index is on record?
A: 4.09

Q: With KIREREEWIKLDYHRRHNPKTNED [K5R] as the variant, how does the protein stability index read?
A: 4.64

Q: Which protein stability index does the source give for KIREPEEWIKLDYHRRHNPKTNED [K5P] here?
A: 4.63

Q: For KIREFEEWIKLDYHRRHNPKTNED [K5F], which protein stability index is on record?
A: 3.67

Q: For KIRELEEWIKLDYHRRHNPKTNED [K5L], which protein stability index is on record?
A: 3.13

Q: For KIREMEEWIKLDYHRRHNPKTNED [K5M], which protein stability index is on record?
A: 3.04

Q: Which protein stability index does the source give for KIREGEEWIKLDYHRRHNPKTNED [K5G] here?
A: 4.6

Q: For KIREHEEWIKLDYHRRHNPKTNED [K5H], which protein stability index is on record?
A: 4.51

Q: With KIREQEEWIKLDYHRRHNPKTNED [K5Q] as the variant, how does the protein stability index read?
A: 4.93

Q: With KIREIEEWIKLDYHRRHNPKTNED [K5I] as the variant, how does the protein stability index read?
A: 2.39

Q: Which protein stability index does the source give for KIREWEEWIKLDYHRRHNPKTNED [K5W] here?
A: 3.74

Q: Which protein stability index does the source give for KIRENEEWIKLDYHRRHNPKTNED [K5N] here?
A: 4.7

Q: For KIRETEEWIKLDYHRRHNPKTNED [K5T], which protein stability index is on record?
A: 4.21

Q: For KIREAEEWIKLDYHRRHNPKTNED [K5A], which protein stability index is on record?
A: 3.99

Q: For KIREEEEWIKLDYHRRHNPKTNED [K5E], which protein stability index is on record?
A: 4.45

Q: With KIREVEEWIKLDYHRRHNPKTNED [K5V] as the variant, how does the protein stability index read?
A: 3.4

Q: With KIREDEEWIKLDYHRRHNPKTNED [K5D] as the variant, how does the protein stability index read?
A: 4.51

Q: With KIRESEEWIKLDYHRRHNPKTNED [K5S] as the variant, how does the protein stability index read?
A: 4.14

Q: With KLREKEEWIKLDYHRRHNPKTNED [I2L] as the variant, how does the protein stability index read?
A: 4.74

Q: Which protein stability index does the source give for KEREKEEWIKLDYHRRHNPKTNED [I2E] here?
A: 5.32

Q: With KMREKEEWIKLDYHRRHNPKTNED [I2M] as the variant, how does the protein stability index read?
A: 4.72

Q: For KKREKEEWIKLDYHRRHNPKTNED [I2K], which protein stability index is on record?
A: 4.8

Q: Which protein stability index does the source give for KRREKEEWIKLDYHRRHNPKTNED [I2R] here?
A: 4.58

Q: Which protein stability index does the source give for KQREKEEWIKLDYHRRHNPKTNED [I2Q] here?
A: 4.14

Q: For KSREKEEWIKLDYHRRHNPKTNED [I2S], which protein stability index is on record?
A: 5.09

Q: Which protein stability index does the source give for KHREKEEWIKLDYHRRHNPKTNED [I2H] here?
A: 4.91

Q: Which protein stability index does the source give for KFREKEEWIKLDYHRRHNPKTNED [I2F] here?
A: 4.19

Q: Which protein stability index does the source give for KAREKEEWIKLDYHRRHNPKTNED [I2A] here?
A: 4.88

Q: With KTREKEEWIKLDYHRRHNPKTNED [I2T] as the variant, how does the protein stability index read?
A: 4.69

Q: For KGREKEEWIKLDYHRRHNPKTNED [I2G], which protein stability index is on record?
A: 5.25

Q: With KYREKEEWIKLDYHRRHNPKTNED [I2Y] as the variant, how does the protein stability index read?
A: 4.2

Q: For KNREKEEWIKLDYHRRHNPKTNED [I2N], which protein stability index is on record?
A: 5

Q: Which protein stability index does the source give for KCREKEEWIKLDYHRRHNPKTNED [I2C] here?
A: 4.62

Q: Which protein stability index does the source give for KPREKEEWIKLDYHRRHNPKTNED [I2P] here?
A: 3.84

Q: With KVREKEEWIKLDYHRRHNPKTNED [I2V] as the variant, how does the protein stability index read?
A: 4.67

Q: For KWREKEEWIKLDYHRRHNPKTNED [I2W], which protein stability index is on record?
A: 4.26

Q: For KDREKEEWIKLDYHRRHNPKTNED [I2D], which protein stability index is on record?
A: 5.17

Q: Which protein stability index does the source give for KIIEKEEWIKLDYHRRHNPKTNED [R3I] here?
A: 4.35

Q: With KIKEKEEWIKLDYHRRHNPKTNED [R3K] as the variant, how does the protein stability index read?
A: 4.67

Q: With KINEKEEWIKLDYHRRHNPKTNED [R3N] as the variant, how does the protein stability index read?
A: 4.72

Q: Which protein stability index does the source give for KICEKEEWIKLDYHRRHNPKTNED [R3C] here?
A: 4.8

Q: With KIQEKEEWIKLDYHRRHNPKTNED [R3Q] as the variant, how does the protein stability index read?
A: 4.6

Q: For KIHEKEEWIKLDYHRRHNPKTNED [R3H], which protein stability index is on record?
A: 4.67

Q: Which protein stability index does the source give for KIVEKEEWIKLDYHRRHNPKTNED [R3V] here?
A: 4.52

Q: With KIYEKEEWIKLDYHRRHNPKTNED [R3Y] as the variant, how does the protein stability index read?
A: 4.29

Q: Which protein stability index does the source give for KIGEKEEWIKLDYHRRHNPKTNED [R3G] here?
A: 5.16

Q: For KIWEKEEWIKLDYHRRHNPKTNED [R3W], which protein stability index is on record?
A: 4.21

Q: Which protein stability index does the source give for KIFEKEEWIKLDYHRRHNPKTNED [R3F] here?
A: 4.3

Q: Which protein stability index does the source give for KIDEKEEWIKLDYHRRHNPKTNED [R3D] here?
A: 5.34

Q: For KIMEKEEWIKLDYHRRHNPKTNED [R3M], which protein stability index is on record?
A: 4.02

Q: Which protein stability index does the source give for KILEKEEWIKLDYHRRHNPKTNED [R3L] here?
A: 4.22

Q: For KISEKEEWIKLDYHRRHNPKTNED [R3S], which protein stability index is on record?
A: 4.6

Q: Which protein stability index does the source give for KIAEKEEWIKLDYHRRHNPKTNED [R3A] here?
A: 5.05

Q: With KIEEKEEWIKLDYHRRHNPKTNED [R3E] as the variant, how does the protein stability index read?
A: 5.08

Q: Which protein stability index does the source give for KIPEKEEWIKLDYHRRHNPKTNED [R3P] here?
A: 4.97

Q: Which protein stability index does the source give for KITEKEEWIKLDYHRRHNPKTNED [R3T] here?
A: 4.61

Q: Which protein stability index does the source give for GIREKEEWIKLDYHRRHNPKTNED [K1G] here?
A: 5.15

Q: For RIREKEEWIKLDYHRRHNPKTNED [K1R], which protein stability index is on record?
A: 4.68

Q: Which protein stability index does the source give for DIREKEEWIKLDYHRRHNPKTNED [K1D] here?
A: 4.99

Q: With AIREKEEWIKLDYHRRHNPKTNED [K1A] as the variant, how does the protein stability index read?
A: 4.79

Q: With EIREKEEWIKLDYHRRHNPKTNED [K1E] as the variant, how does the protein stability index read?
A: 4.62

Q: Which protein stability index does the source give for PIREKEEWIKLDYHRRHNPKTNED [K1P] here?
A: 4.99

Q: Which protein stability index does the source give for CIREKEEWIKLDYHRRHNPKTNED [K1C] here?
A: 4.07

Q: For LIREKEEWIKLDYHRRHNPKTNED [K1L], which protein stability index is on record?
A: 4.15

Q: With VIREKEEWIKLDYHRRHNPKTNED [K1V] as the variant, how does the protein stability index read?
A: 4.52

Q: Which protein stability index does the source give for IIREKEEWIKLDYHRRHNPKTNED [K1I] here?
A: 4.02

Q: For WIREKEEWIKLDYHRRHNPKTNED [K1W], which protein stability index is on record?
A: 3.75

Q: For MIREKEEWIKLDYHRRHNPKTNED [K1M], which protein stability index is on record?
A: 4.14

Q: For QIREKEEWIKLDYHRRHNPKTNED [K1Q], which protein stability index is on record?
A: 4.96

Q: With TIREKEEWIKLDYHRRHNPKTNED [K1T] as the variant, how does the protein stability index read?
A: 4.87

Q: For YIREKEEWIKLDYHRRHNPKTNED [K1Y], which protein stability index is on record?
A: 2.98

Q: With SIREKEEWIKLDYHRRHNPKTNED [K1S] as the variant, how does the protein stability index read?
A: 4.62

Q: For FIREKEEWIKLDYHRRHNPKTNED [K1F], which protein stability index is on record?
A: 2.67

Q: For HIREKEEWIKLDYHRRHNPKTNED [K1H], which protein stability index is on record?
A: 4.62

Q: For NIREKEEWIKLDYHRRHNPKTNED [K1N], which protein stability index is on record?
A: 5.44

Q: Which protein stability index does the source give for KIREKEENIKLDYHRRHNPKTNED [W8N] here?
A: 5.03

Q: For KIREKEEFIKLDYHRRHNPKTNED [W8F], which protein stability index is on record?
A: 4.24

Q: For KIREKEECIKLDYHRRHNPKTNED [W8C], which protein stability index is on record?
A: 4.93

Q: Which protein stability index does the source give for KIREKEEIIKLDYHRRHNPKTNED [W8I] here?
A: 4.24

Q: For KIREKEEMIKLDYHRRHNPKTNED [W8M], which protein stability index is on record?
A: 5.1

Q: Which protein stability index does the source give for KIREKEEPIKLDYHRRHNPKTNED [W8P] here?
A: 5.25

Q: For KIREKEEYIKLDYHRRHNPKTNED [W8Y], which protein stability index is on record?
A: 5.13

Q: For KIREKEEKIKLDYHRRHNPKTNED [W8K], which protein stability index is on record?
A: 5.19

Q: With KIREKEEGIKLDYHRRHNPKTNED [W8G] as the variant, how does the protein stability index read?
A: 5.54

Q: For KIREKEESIKLDYHRRHNPKTNED [W8S], which protein stability index is on record?
A: 5.41

Q: With KIREKEEEIKLDYHRRHNPKTNED [W8E] as the variant, how does the protein stability index read?
A: 4.69

Q: Which protein stability index does the source give for KIREKEEVIKLDYHRRHNPKTNED [W8V] here?
A: 5.07

Q: For KIREKEERIKLDYHRRHNPKTNED [W8R], which protein stability index is on record?
A: 4.91

Q: Which protein stability index does the source give for KIREKEEAIKLDYHRRHNPKTNED [W8A] here?
A: 5.18

Q: With KIREKEEQIKLDYHRRHNPKTNED [W8Q] as the variant, how does the protein stability index read?
A: 5.58

Q: With KIREKEEDIKLDYHRRHNPKTNED [W8D] as the variant, how does the protein stability index read?
A: 5.13

Q: For KIREKEETIKLDYHRRHNPKTNED [W8T], which protein stability index is on record?
A: 5.19

Q: For KIREKEEHIKLDYHRRHNPKTNED [W8H], which protein stability index is on record?
A: 4.99

Q: Which protein stability index does the source give for KIREKEELIKLDYHRRHNPKTNED [W8L] here?
A: 4.94
